Format in all cases: biochemical, Drosophila melanogaster
Substrate in series [1]: Nc1nc2c(ncn2[C@@H]2O[C@H](COP(=O)(O)OP(=O)(O)OP(=O)(O)O)[C@@H](O)[C@H]2O)c(=O)[nH]1
Substrate in series [2]: Nc1nc2c(ncn2[C@@H]2O[C@H](COP(=O)(O)OP(=O)(O)OP(=O)(O)O)[C@@H](O)[C@H]2O)c(=O)[nH]1
The source holds these as a separate data set.

Substrate in series [3]: Nc1nc2c(ncn2[C@@H]2O[C@H](COP(=O)(O)OP(=O)(O)OP(=O)(O)O)[C@@H](O)[C@H]2O)c(=O)[nH]1
This is another data set of the same source.

Substrate in series [4]: Nc1nc2c(ncn2[C@@H]2O[C@H](COP(=O)(O)OP(=O)(O)OP(=O)(O)O)[C@@H](O)[C@H]2O)c(=O)[nH]1
This is another data set of the same source.

The source of these data is publication PMC1307573.

Where two headings read alike, the source gives them in different places.

B1: Gycα-99B/β-100B (Drosophila melanogaster) (protein)
chain 1: MACPFFRRADSLTRQPSVIAEPGGHWALEDEELSDDALTLTHLQMAIQLLTAPSNEDLNTAVTSLVAKYRQNWPNIHKLKLDPQTFKSCANYDYLADIQELLLKMDEASASEILVLLGEELITCCCTGIIERAFRCLGTDLQEFLGSLDGVYDVLKLQEEDVTDTGFVCAGEGELIFTSERPVIAWLLLGSLKALTRMLYKVDVNIKIEPVEGDARRYRYLFSLVKDNSQTMLMGRPTSVSKTIPETVQRSNSSNASDLQMNSSSFCKMFPWHFIMNEQLELVQLGRGFSKLYKPYMADFGCQATTYFDFKRPKGLTMKFRDIVRRTYTPFLIGLNNPPGAVDFPAIGLEIKGQMVHCPESNSLLFIGSPFLDGLDGLTCNGLFISDIPLHDATREVILVGEQARAQDGLRRRMDKIKNSIEEANSAVTKERKKNVSLLHLIFPAEIAEKLWLGSSIDAKTYPDVTILFSDIVGFTSICSRATPFMVISMLEGLYKDFDEFCDFFDVYKVETIGDAYCVASGLHRASIYDAHKVAWMALKMIDACSKHITHDGEQIKMRIGLHTGTVLAGVVGRKMPRYCLFGHSVTIANKFESGSEALKINVSPTTKDWLTKHEGFEFELQPRDPSFLPKEFPNPGGTETCYFLESFRNPALDSELPLVEHINVSMKTISEGGDA
chain 2: MYGFVNYALELLVLKHFGEEIWEKIKKKAMVSMEGQFLVRQIYDDEITYNLIGAAVEILNIPADDILELFGKTFFEFCQDSGYDKILQVLGATPRDFLQNLDALHDHLGTLYPGMRAPSFRCTEKDGELLLHYYSERPGLEHIVIGIVKAVASKLHGVEVEIDIVKRKGEPIDEAEKERAIARENQQLLEDAVATTTTGSATVVLAPSSDAERNNNHNGSNGSNNNGMANNGNTVNVNNNNDGQQIASETDPSIALSTCPIAQDSFDCDGDKEQKCLRLLKNKSDDIERYDHVQFLIREINVAAKSQVDAKKDEVPDDMEFLCEAPLISPATFCKVFPFHLMFDRQMKIVQAGKAVSRVIPRVAEENCSLIEVVEAIRPHLQLNFENILSHINTIYVLQTRQGAMSSRHEQRFLRLKGQMMYIPETDRILFQCYPSVMNLDDLTKKGLYISDVPLHDAARDLVLLSEKFEAEYKLTKNLEMLTDKLQQTFRDLESEKQKTDRLLYSVLPKSVANELRHQRPVPPKRYDSVTLMFSGIVGFGQYCAANTDPDGAMKIVKMLNELYTVFDALTDSKRNLNVYKVETVGDKYMAVSGLPDHCEDHAKCMARVALDMMDMAKNVKMGSNPVQITIGIHSGEVVTGVIGNRVPRYCLFGNTVNLTSRTETTGVPGRINVSEETYRLLCMAINQDDSFHLEYRGPVIMKGKPTPMDCWFLTRATSSILGGTSSTGGSGGGGNGSLDSPLLQPATPTAGAATPIPVVAQRAAGHASVSRTSSAGGGGGGAVVGT
On to B1, for which, in series [1] (other: in the presence of Mg2+), the Km worked out at 370 ± 60 µM and the Vmax is 2.11 ± 0.10 pmoles cGMP/min/mg protein. Further, in series [1] (other: in the presence of Mn2+), the Km was 31 ± 8 µM and the Vmax is listed as 204 ± 10.6 pmoles cGMP/min/mg protein.

B2: Gyc-88EL (Drosophila melanogaster) (protein)
chain: MYGLLLENLSEYIKSVYGEEKWEDIRRQAGIDSPSFSVHQVYPENLLQKLAKKAQQVLGVSERDFMDQMGVYFVGFVGQYGYDRVLSVLGRHMRDFLNGLDNLHEYLKFSYPRMRAPSFICENETKQGLTLHYRSKRRGFVYYTMGQIREVARYFYHKEMHIELVREEILFDTVHVTFQLTFDNRAFTLASLAMTREEKHLPISAHVLFEIFPFCMVFGADMVVRSIGNSLMVILPELLGKKITAWFDLVRPLIAFKFQTILNRTNNIFELVTVDPVTERFDVQNEDLLQHEDGSEPEKSLRLKGQMVYMENWRMIMFLGTPVMPDLTSLITTGLYINDLSMHDFSRDLMLAGTQQSVELKLALDQEQQKSKKLEESMRLLDEEMRRTDELLYQMIPKQVADRLRRGENPIDTCEMFDSVSILFSDIVTFTEICSRITPMEVVSMLNAMYSIFDKLTERNSVYKVETIGDAYMVVAGAPDKDANHAERVCDMALDMVDAITDLKDPSTGQHLRIRVGVHSGAVVAGIVGLKMPRYCLFGDTVNTASRMESTSIAMKVHISESTKVLIGPNYKIIERGEIDVKGKGTMGTYWLEERENRLPLQLTAALQVHPLSPVPPTPTPKTKAIMPPVSKPLTPMMPVSVSLAASMPTSNVPAVDVMASSSSISGLALTAAAAAHMSLHHQAVVAEALTGASVEVALPSVASGATGAAAGGGAPSDDRNSRIYSPVTFKDVARRSVANSPVRSCAQPDQERRRESRSNSTGHVFMRTPSEIFGSLILDTEEFLEDLQISRSSLANNNNNQSPCGFSPTPPFRIGSAPPKPRPSNPDKFTPEELAAMDQLTPPSTAPARETASCSSASLDRDKATKLKKITFSNSSSLDATTPTALAAVVCPMRTKSPPMAVAPVMHMVQASTSKGDGQRPGSKDSVSSISLHSPPPHRSNSAPARPHSMSKAARKAFLAAKQTKAMEKLDKMIEEVQEVESQSVAKAANMRLALYGHDGGGDLAAGGCPLFLPPPPQQQQQQQQSLMPSSISDSGLCSHGHSHAPSCHHMDPKMTNSQSFQHSPRGGITHQCCSGFGHGNGRHSHRMHSNACRIL
As to B2, the Km turned out to be 1730 ± 1300 µM in series [2] (other: in the presence of Mg2+) and 32 ± 11 µM in series [2] (other: in the presence of Mn2+). The values for the Vmax in series [2] (other: in the presence of Mg2+) and in series [2] (other: in the presence of Mn2+) were 1.32 ± 0.33 pmoles cGMP/min/mg protein and 2.26 ± 0.16 pmoles cGMP/min/mg protein, respectively.

B3: Gyc-88EL/89Db (Drosophila melanogaster) (protein)
chain 1: MYGLLLENLSEYIKSVYGEEKWEDIRRQAGIDSPSFSVHQVYPENLLQKLAKKAQQVLGVSERDFMDQMGVYFVGFVGQYGYDRVLSVLGRHMRDFLNGLDNLHEYLKFSYPRMRAPSFICENETKQGLTLHYRSKRRGFVYYTMGQIREVARYFYHKEMHIELVREEILFDTVHVTFQLTFDNRAFTLASLAMTREEKHLPISAHVLFEIFPFCMVFGADMVVRSIGNSLMVILPELLGKKITAWFDLVRPLIAFKFQTILNRTNNIFELVTVDPVTERFDVQNEDLLQHEDGSEPEKSLRLKGQMVYMENWRMIMFLGTPVMPDLTSLITTGLYINDLSMHDFSRDLMLAGTQQSVELKLALDQEQQKSKKLEESMRLLDEEMRRTDELLYQMIPKQVADRLRRGENPIDTCEMFDSVSILFSDIVTFTEICSRITPMEVVSMLNAMYSIFDKLTERNSVYKVETIGDAYMVVAGAPDKDANHAERVCDMALDMVDAITDLKDPSTGQHLRIRVGVHSGAVVAGIVGLKMPRYCLFGDTVNTASRMESTSIAMKVHISESTKVLIGPNYKIIERGEIDVKGKGTMGTYWLEERENRLPLQLTAALQVHPLSPVPPTPTPKTKAIMPPVSKPLTPMMPVSVSLAASMPTSNVPAVDVMASSSSISGLALTAAAAAHMSLHHQAVVAEALTGASVEVALPSVASGATGAAAGGGAPSDDRNSRIYSPVTFKDVARRSVANSPVRSCAQPDQERRRESRSNSTGHVFMRTPSEIFGSLILDTEEFLEDLQISRSSLANNNNNQSPCGFSPTPPFRIGSAPPKPRPSNPDKFTPEELAAMDQLTPPSTAPARETASCSSASLDRDKATKLKKITFSNSSSLDATTPTALAAVVCPMRTKSPPMAVAPVMHMVQASTSKGDGQRPGSKDSVSSISLHSPPPHRSNSAPARPHSMSKAARKAFLAAKQTKAMEKLDKMIEEVQEVESQSVAKAANMRLALYGHDGGGDLAAGGCPLFLPPPPQQQQQQQQSLMPSSISDSGLCSHGHSHAPSCHHMDPKMTNSQSFQHSPRGGITHQCCSGFGHGNGRHSHRMHSNACRIL
chain 2: not shown
For the protein B3, in series [3] (other: in the presence of Mg2+), the Km stood at 890 ± 170 µM and the Vmax is on record as 4.83 ± 0.33 pmoles cGMP/min/mg protein. Moreover, in series [3] (other: in the presence of Mn2+), the Km was 9.4 ± 4.8 µM and the Vmax was 8.72 ± 0.82 pmoles cGMP/min/mg protein.

B4: Gyc-88EL/89Da (Drosophila melanogaster) (protein)
chain 1: MYGLLLENLSEYIKSVYGEEKWEDIRRQAGIDSPSFSVHQVYPENLLQKLAKKAQQVLGVSERDFMDQMGVYFVGFVGQYGYDRVLSVLGRHMRDFLNGLDNLHEYLKFSYPRMRAPSFICENETKQGLTLHYRSKRRGFVYYTMGQIREVARYFYHKEMHIELVREEILFDTVHVTFQLTFDNRAFTLASLAMTREEKHLPISAHVLFEIFPFCMVFGADMVVRSIGNSLMVILPELLGKKITAWFDLVRPLIAFKFQTILNRTNNIFELVTVDPVTERFDVQNEDLLQHEDGSEPEKSLRLKGQMVYMENWRMIMFLGTPVMPDLTSLITTGLYINDLSMHDFSRDLMLAGTQQSVELKLALDQEQQKSKKLEESMRLLDEEMRRTDELLYQMIPKQVADRLRRGENPIDTCEMFDSVSILFSDIVTFTEICSRITPMEVVSMLNAMYSIFDKLTERNSVYKVETIGDAYMVVAGAPDKDANHAERVCDMALDMVDAITDLKDPSTGQHLRIRVGVHSGAVVAGIVGLKMPRYCLFGDTVNTASRMESTSIAMKVHISESTKVLIGPNYKIIERGEIDVKGKGTMGTYWLEERENRLPLQLTAALQVHPLSPVPPTPTPKTKAIMPPVSKPLTPMMPVSVSLAASMPTSNVPAVDVMASSSSISGLALTAAAAAHMSLHHQAVVAEALTGASVEVALPSVASGATGAAAGGGAPSDDRNSRIYSPVTFKDVARRSVANSPVRSCAQPDQERRRESRSNSTGHVFMRTPSEIFGSLILDTEEFLEDLQISRSSLANNNNNQSPCGFSPTPPFRIGSAPPKPRPSNPDKFTPEELAAMDQLTPPSTAPARETASCSSASLDRDKATKLKKITFSNSSSLDATTPTALAAVVCPMRTKSPPMAVAPVMHMVQASTSKGDGQRPGSKDSVSSISLHSPPPHRSNSAPARPHSMSKAARKAFLAAKQTKAMEKLDKMIEEVQEVESQSVAKAANMRLALYGHDGGGDLAAGGCPLFLPPPPQQQQQQQQSLMPSSISDSGLCSHGHSHAPSCHHMDPKMTNSQSFQHSPRGGITHQCCSGFGHGNGRHSHRMHSNACRIL
chain 2: not shown
For the protein B4, in series [4] (other: in the presence of Mg2+), the Km came to 2060 ± 1950 µM and the Vmax is listed as 1.92 ± 0.65 pmoles cGMP/min/mg protein. For the same protein, in series [4] (other: in the presence of Mn2+), the Km turned out to be 149 ± 14 µM and the Vmax was 90.1 ± 2.34 pmoles cGMP/min/mg protein.

A word on the Km: it is the substrate concentration at which the rate is half of its maximum.
